These results are taken from US20140087995A1 (published 2014).

This assay concerns the target T1, human calcitonin receptor (human, UniProt P30988 25-474).
T1 sequence (looked up): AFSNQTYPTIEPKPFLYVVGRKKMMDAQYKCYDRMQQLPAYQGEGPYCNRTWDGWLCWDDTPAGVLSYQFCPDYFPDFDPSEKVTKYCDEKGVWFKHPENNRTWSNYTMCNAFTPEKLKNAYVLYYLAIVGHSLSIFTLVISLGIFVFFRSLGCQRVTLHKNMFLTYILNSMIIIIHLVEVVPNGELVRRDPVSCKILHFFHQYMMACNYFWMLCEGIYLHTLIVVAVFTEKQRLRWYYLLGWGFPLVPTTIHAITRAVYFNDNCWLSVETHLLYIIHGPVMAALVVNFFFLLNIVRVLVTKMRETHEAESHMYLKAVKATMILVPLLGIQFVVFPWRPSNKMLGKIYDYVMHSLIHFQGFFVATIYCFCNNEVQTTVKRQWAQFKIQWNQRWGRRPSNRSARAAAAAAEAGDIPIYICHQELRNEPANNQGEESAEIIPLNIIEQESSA
Kind of assay: cell-based or functional assay.

Numbered stars: 1 amine (or outer) side, 2 acyl side, 3 side chain; on linkers, the order of the positions; unused ones are H or OH. Bridge positions count the residues as written; N and C are the ends. Side chains are listed from the residue outwards. Ends that are not written are not given here. * marks the point of attachment. C20 diacid = O=C(O)CCCCCCCCCCCCCCCCCCC(=O)*; γGlu = O=C(O)[C@H](CCC(=O)[*:2])N[*:1]; AEEA = NCCOCCOCC(=O)O

B1: N^ε1-[2-[2-[2-[[(4S)-4-carboxy-4-(19-carboxynonadecanoylamino)butanoyl]amino]ethoxy]ethoxy]acetyl]-[His14,Arg17,Pro21,Pro27,His34]-h-amylin (peptide)
peptide: K([AEEA-γGlu-C20 diacid])CNTATCATQRLAHFLRHSSPNFGAIPSSTNVGHNTY-NH2
modifications: disulfide 2-7; N-terminus assumed
SMILES: CC[C@H](C)[C@H](NC(=O)[C@H](C)NC(=O)CNC(=O)[C@H](Cc1ccccc1)NC(=O)[C@H](CC(N)=O)NC(=O)[C@@H]1CCCN1C(=O)[C@H](CO)NC(=O)[C@H](CO)NC(=O)[C@H](Cc1c[nH]cn1)NC(=O)[C@H](CCCNC(=N)N)NC(=O)[C@H](CC(C)C)NC(=O)[C@H](Cc1ccccc1)NC(=O)[C@H](Cc1c[nH]cn1)NC(=O)[C@H](C)NC(=O)[C@H](CC(C)C)NC(=O)[C@H](CCCNC(=N)N)NC(=O)[C@H](CCC(N)=O)NC(=O)[C@@H](NC(=O)[C@H](C)NC(=O)[C@@H]1CSSC[C@H](NC(=O)[C@@H](N)CCCCNC(=O)COCCOCCNC(=O)CC[C@H](NC(=O)CCCCCCCCCCCCCCCCCCC(=O)O)C(=O)O)C(=O)N[C@@H](CC(N)=O)C(=O)N[C@@H]([C@@H](C)O)C(=O)N[C@@H](C)C(=O)N[C@@H]([C@@H](C)O)C(=O)N1)[C@@H](C)O)C(=O)N1CCC[C@H]1C(=O)N[C@@H](CO)C(=O)N[C@@H](CO)C(=O)N[C@H](C(=O)N[C@@H](CC(N)=O)C(=O)N[C@H](C(=O)NCC(=O)N[C@@H](Cc1c[nH]cn1)C(=O)N[C@@H](CC(N)=O)C(=O)N[C@H](C(=O)N[C@@H](Cc1ccc(O)cc1)C(N)=O)[C@@H](C)O)C(C)C)[C@@H](C)O
notes: also called compound 80
Consider B1, for which the “hCTR funct. EC50” value was 2.14 nM.

B2: N^ε1-[2-[2-[2-[[(4S)-4-carboxy-4-(19-carboxynonadecanoylamino)butanoyl]amino]ethoxy]ethoxy]acetyl]-[Ser14,Arg17,Pro21,Pro27,Pro31]-h-amylin (peptide)
peptide: K([AEEA-γGlu-C20 diacid])CNTATCATQRLASFLRHSSPNFGAIPSSTPVGSNTY-NH2
modifications: disulfide 2-7; N-terminus assumed
SMILES: CC[C@H](C)[C@H](NC(=O)[C@H](C)NC(=O)CNC(=O)[C@H](Cc1ccccc1)NC(=O)[C@H](CC(N)=O)NC(=O)[C@@H]1CCCN1C(=O)[C@H](CO)NC(=O)[C@H](CO)NC(=O)[C@H](Cc1c[nH]cn1)NC(=O)[C@H](CCCNC(=N)N)NC(=O)[C@H](CC(C)C)NC(=O)[C@H](Cc1ccccc1)NC(=O)[C@H](CO)NC(=O)[C@H](C)NC(=O)[C@H](CC(C)C)NC(=O)[C@H](CCCNC(=N)N)NC(=O)[C@H](CCC(N)=O)NC(=O)[C@@H](NC(=O)[C@H](C)NC(=O)[C@@H]1CSSC[C@H](NC(=O)[C@@H](N)CCCCNC(=O)COCCOCCNC(=O)CC[C@H](NC(=O)CCCCCCCCCCCCCCCCCCC(=O)O)C(=O)O)C(=O)N[C@@H](CC(N)=O)C(=O)N[C@@H]([C@@H](C)O)C(=O)N[C@@H](C)C(=O)N[C@@H]([C@@H](C)O)C(=O)N1)[C@@H](C)O)C(=O)N1CCC[C@H]1C(=O)N[C@@H](CO)C(=O)N[C@@H](CO)C(=O)N[C@H](C(=O)N1CCC[C@H]1C(=O)N[C@H](C(=O)NCC(=O)N[C@@H](CO)C(=O)N[C@@H](CC(N)=O)C(=O)N[C@H](C(=O)N[C@@H](Cc1ccc(O)cc1)C(N)=O)[C@@H](C)O)C(C)C)[C@@H](C)O
notes: also called compound 73
As to B2, the “hCTR funct. EC50” value amounted to 0.961 nM.

B3: N^ε1-[2-[2-[2-[[(4S)-4-carboxy-4-(19-carboxynonadecanoylamino)butanoyl]amino]ethoxy]ethoxy]acetyl]-[His14,Arg17,Pro21,Pro27,Pro31]-h-amylin (peptide)
peptide: K([AEEA-γGlu-C20 diacid])CNTATCATQRLAHFLRHSSPNFGAIPSSTPVGSNTY-NH2
modifications: disulfide 2-7; N-terminus assumed
SMILES: CC[C@H](C)[C@H](NC(=O)[C@H](C)NC(=O)CNC(=O)[C@H](Cc1ccccc1)NC(=O)[C@H](CC(N)=O)NC(=O)[C@@H]1CCCN1C(=O)[C@H](CO)NC(=O)[C@H](CO)NC(=O)[C@H](Cc1c[nH]cn1)NC(=O)[C@H](CCCNC(=N)N)NC(=O)[C@H](CC(C)C)NC(=O)[C@H](Cc1ccccc1)NC(=O)[C@H](Cc1c[nH]cn1)NC(=O)[C@H](C)NC(=O)[C@H](CC(C)C)NC(=O)[C@H](CCCNC(=N)N)NC(=O)[C@H](CCC(N)=O)NC(=O)[C@@H](NC(=O)[C@H](C)NC(=O)[C@@H]1CSSC[C@H](NC(=O)[C@@H](N)CCCCNC(=O)COCCOCCNC(=O)CC[C@H](NC(=O)CCCCCCCCCCCCCCCCCCC(=O)O)C(=O)O)C(=O)N[C@@H](CC(N)=O)C(=O)N[C@@H]([C@@H](C)O)C(=O)N[C@@H](C)C(=O)N[C@@H]([C@@H](C)O)C(=O)N1)[C@@H](C)O)C(=O)N1CCC[C@H]1C(=O)N[C@@H](CO)C(=O)N[C@@H](CO)C(=O)N[C@H](C(=O)N1CCC[C@H]1C(=O)N[C@H](C(=O)NCC(=O)N[C@@H](CO)C(=O)N[C@@H](CC(N)=O)C(=O)N[C@H](C(=O)N[C@@H](Cc1ccc(O)cc1)C(N)=O)[C@@H](C)O)C(C)C)[C@@H](C)O
notes: also called compound 61
In the case of B3, the “hCTR funct. EC50” value worked out at 0.554 nM.

B4: N^ε1-[2-[2-[2-[[(4S)-4-carboxy-4-(19-carboxynonadecanoylamino)butanoyl]amino]ethoxy]ethoxy]acetyl]-[His14,Arg17,Pro21,Pro27,Pro34]-h-amylin (peptide)
peptide: K([AEEA-γGlu-C20 diacid])CNTATCATQRLAHFLRHSSPNFGAIPSSTNVGPNTY-NH2
modifications: disulfide 2-7; N-terminus assumed
SMILES: CC[C@H](C)[C@H](NC(=O)[C@H](C)NC(=O)CNC(=O)[C@H](Cc1ccccc1)NC(=O)[C@H](CC(N)=O)NC(=O)[C@@H]1CCCN1C(=O)[C@H](CO)NC(=O)[C@H](CO)NC(=O)[C@H](Cc1c[nH]cn1)NC(=O)[C@H](CCCNC(=N)N)NC(=O)[C@H](CC(C)C)NC(=O)[C@H](Cc1ccccc1)NC(=O)[C@H](Cc1c[nH]cn1)NC(=O)[C@H](C)NC(=O)[C@H](CC(C)C)NC(=O)[C@H](CCCNC(=N)N)NC(=O)[C@H](CCC(N)=O)NC(=O)[C@@H](NC(=O)[C@H](C)NC(=O)[C@@H]1CSSC[C@H](NC(=O)[C@@H](N)CCCCNC(=O)COCCOCCNC(=O)CC[C@H](NC(=O)CCCCCCCCCCCCCCCCCCC(=O)O)C(=O)O)C(=O)N[C@@H](CC(N)=O)C(=O)N[C@@H]([C@@H](C)O)C(=O)N[C@@H](C)C(=O)N[C@@H]([C@@H](C)O)C(=O)N1)[C@@H](C)O)C(=O)N1CCC[C@H]1C(=O)N[C@@H](CO)C(=O)N[C@@H](CO)C(=O)N[C@H](C(=O)N[C@@H](CC(N)=O)C(=O)N[C@H](C(=O)NCC(=O)N1CCC[C@H]1C(=O)N[C@@H](CC(N)=O)C(=O)N[C@H](C(=O)N[C@@H](Cc1ccc(O)cc1)C(N)=O)[C@@H](C)O)C(C)C)[C@@H](C)O
notes: also called compound 68
Take B4: the “hCTR funct. EC50” value came out at 0.932 nM.

B5: N^ε1-[2-[2-[2-[[(4S)-4-carboxy-4-(19-carboxynonadecanoylamino)butanoyl]amino]ethoxy]ethoxy]acetyl]-[Lys14,Arg17,Pro21,Pro27,Pro31]-h-amylin (peptide)
peptide: K([AEEA-γGlu-C20 diacid])CNTATCATQRLAKFLRHSSPNFGAIPSSTPVGSNTY-NH2
modifications: disulfide 2-7; N-terminus assumed
SMILES: CC[C@H](C)[C@H](NC(=O)[C@H](C)NC(=O)CNC(=O)[C@H](Cc1ccccc1)NC(=O)[C@H](CC(N)=O)NC(=O)[C@@H]1CCCN1C(=O)[C@H](CO)NC(=O)[C@H](CO)NC(=O)[C@H](Cc1c[nH]cn1)NC(=O)[C@H](CCCNC(=N)N)NC(=O)[C@H](CC(C)C)NC(=O)[C@H](Cc1ccccc1)NC(=O)[C@H](CCCCN)NC(=O)[C@H](C)NC(=O)[C@H](CC(C)C)NC(=O)[C@H](CCCNC(=N)N)NC(=O)[C@H](CCC(N)=O)NC(=O)[C@@H](NC(=O)[C@H](C)NC(=O)[C@@H]1CSSC[C@H](NC(=O)[C@@H](N)CCCCNC(=O)COCCOCCNC(=O)CC[C@H](NC(=O)CCCCCCCCCCCCCCCCCCC(=O)O)C(=O)O)C(=O)N[C@@H](CC(N)=O)C(=O)N[C@@H]([C@@H](C)O)C(=O)N[C@@H](C)C(=O)N[C@@H]([C@@H](C)O)C(=O)N1)[C@@H](C)O)C(=O)N1CCC[C@H]1C(=O)N[C@@H](CO)C(=O)N[C@@H](CO)C(=O)N[C@H](C(=O)N1CCC[C@H]1C(=O)N[C@H](C(=O)NCC(=O)N[C@@H](CO)C(=O)N[C@@H](CC(N)=O)C(=O)N[C@H](C(=O)N[C@@H](Cc1ccc(O)cc1)C(N)=O)[C@@H](C)O)C(C)C)[C@@H](C)O
notes: also called compound 74
For the molecule B5, the “hCTR funct. EC50” value is 37.5 nM.

B6: N^ε1-[2-[2-[2-[[(4S)-4-carboxy-4-(19-carboxynonadecanoylamino)butanoyl]amino]ethoxy]ethoxy]acetyl]-[Thr14,Arg17,Pro21,Pro27,Pro31]-h-amylin (peptide)
peptide: K([AEEA-γGlu-C20 diacid])CNTATCATQRLATFLRHSSPNFGAIPSSTPVGSNTY-NH2
modifications: disulfide 2-7; N-terminus assumed
SMILES: CC[C@H](C)[C@H](NC(=O)[C@H](C)NC(=O)CNC(=O)[C@H](Cc1ccccc1)NC(=O)[C@H](CC(N)=O)NC(=O)[C@@H]1CCCN1C(=O)[C@H](CO)NC(=O)[C@H](CO)NC(=O)[C@H](Cc1c[nH]cn1)NC(=O)[C@H](CCCNC(=N)N)NC(=O)[C@H](CC(C)C)NC(=O)[C@H](Cc1ccccc1)NC(=O)[C@@H](NC(=O)[C@H](C)NC(=O)[C@H](CC(C)C)NC(=O)[C@H](CCCNC(=N)N)NC(=O)[C@H](CCC(N)=O)NC(=O)[C@@H](NC(=O)[C@H](C)NC(=O)[C@@H]1CSSC[C@H](NC(=O)[C@@H](N)CCCCNC(=O)COCCOCCNC(=O)CC[C@H](NC(=O)CCCCCCCCCCCCCCCCCCC(=O)O)C(=O)O)C(=O)N[C@@H](CC(N)=O)C(=O)N[C@@H]([C@@H](C)O)C(=O)N[C@@H](C)C(=O)N[C@@H]([C@@H](C)O)C(=O)N1)[C@@H](C)O)[C@@H](C)O)C(=O)N1CCC[C@H]1C(=O)N[C@@H](CO)C(=O)N[C@@H](CO)C(=O)N[C@H](C(=O)N1CCC[C@H]1C(=O)N[C@H](C(=O)NCC(=O)N[C@@H](CO)C(=O)N[C@@H](CC(N)=O)C(=O)N[C@H](C(=O)N[C@@H](Cc1ccc(O)cc1)C(N)=O)[C@@H](C)O)C(C)C)[C@@H](C)O
notes: also called compound 75
As for B6, the “hCTR funct. EC50” value was found to be 9.07 nM.
